The source of these data is patent US20120107933A1 (GOVERNMENT OF THE UNITED STATES AS REPRESENTED BY THE …, published 2012).

As a reminder, the Kd is the concentration at which binding is half-saturated.

Assay [1] has as its target human mesothelin on the cell surface (A431/H9 transfectants and human cancer cell lines) (human) (UniProt Q13421). Briefly: cell-based or functional assay.
Assay [2] concerns the target rabbit IgG Fc-human mesothelin fusion protein (full-length extracellular domain, 296-581) (rabbit; human) (UniProt Q13421). The experiment in a line: SPR (Biacore T100), […], kinetic titration.
Assay [3] addresses T1, rabbit IgG Fc-human mesothelin fusion protein (full-length extracellular domain, 296-581) (rabbit; human, UniProt Q13421 296-581).
T1 construct: also called rFc-mesothelin; human mesothelin-Fc; not shown: rabbit IgG Fc
The experiment in a line: SPR (Biacore T100), rFc-mesothelin injected over amine-coupled HN1 mAb, kinetic titration. (SPR reads the build-up and loss of mass on a sensor chip optically.)

Assay [4] has as its target T1, rabbit IgG Fc-human mesothelin fusion ….
Assay [5] has as its target human mesothelin (form not stated) (human, UniProt Q13421 296-581).
For assay [6], the target named is T2, mouse mesothelin (form not stated) (mouse, UniProt Q61468 298-600).
T2 sequence (looked up): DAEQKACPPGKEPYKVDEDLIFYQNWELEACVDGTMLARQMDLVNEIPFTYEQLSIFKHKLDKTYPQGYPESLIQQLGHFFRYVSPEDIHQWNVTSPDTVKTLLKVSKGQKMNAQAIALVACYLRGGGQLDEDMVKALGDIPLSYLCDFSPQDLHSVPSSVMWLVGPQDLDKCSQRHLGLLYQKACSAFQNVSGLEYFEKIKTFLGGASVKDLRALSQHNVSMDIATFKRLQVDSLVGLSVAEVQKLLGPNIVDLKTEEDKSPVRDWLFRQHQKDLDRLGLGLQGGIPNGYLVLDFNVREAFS

Chain of human mesothelin on the cell surface (A431/H9 transfectants and human cancer cell lines) (human) (Q13421 other isoform, or with tags, fused parts or gaps limits assumed): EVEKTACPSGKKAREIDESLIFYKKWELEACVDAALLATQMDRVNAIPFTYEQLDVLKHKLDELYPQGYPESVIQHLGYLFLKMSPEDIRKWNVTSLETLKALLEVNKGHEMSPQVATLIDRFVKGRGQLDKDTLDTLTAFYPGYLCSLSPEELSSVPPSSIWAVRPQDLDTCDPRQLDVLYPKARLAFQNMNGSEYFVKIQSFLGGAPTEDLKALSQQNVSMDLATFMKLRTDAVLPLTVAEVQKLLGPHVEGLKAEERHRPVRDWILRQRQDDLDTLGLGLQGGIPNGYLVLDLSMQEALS
Chain of human mesothelin (form not stated) (Q13421 other isoform, or with tags, fused parts or gaps limits assumed): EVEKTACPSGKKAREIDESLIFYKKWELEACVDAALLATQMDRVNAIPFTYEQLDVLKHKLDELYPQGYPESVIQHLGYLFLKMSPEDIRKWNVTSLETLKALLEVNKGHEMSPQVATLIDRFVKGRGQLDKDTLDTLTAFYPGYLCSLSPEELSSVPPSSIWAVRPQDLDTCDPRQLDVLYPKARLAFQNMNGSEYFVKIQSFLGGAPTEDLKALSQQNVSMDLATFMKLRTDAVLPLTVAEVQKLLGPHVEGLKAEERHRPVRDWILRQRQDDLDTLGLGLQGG

For the molecule “HN1 scFv immunotoxin (HN1 scFv fused to truncated Pseudomonas exotoxin PE38) (from UniProt P11439 278-389; P11439 406-638)”, in assay [1], the Cytotoxic Assays (WST), IC50 of cell viability, H226 cells was determined as 0.013 µg/mL. The Kd in assay [2] amounted to 100 nM. With HA22, an anti-CD22 scFv, in assay [1], the Cytotoxic Assays (WST), IC50 of cell viability, H9 cells is over 1 µg/mL and the Cytotoxic Assays (WST), IC50 of cell viability, H226 cells was over 1 µg/mL.

B1: HN1 fully human IgG (IgG gamma1 kappa) (antibody, V domains shown)
VH: QVQLVQSGAEVKRPGASVQVSCRASGYSINTYYMQWVRQAPGAGLEWMGVINPSGVTSYAQKFQGRVTLTNDTSTNTVYMQLNSLTSADTAVYYCARWALWGDFGMDVWGKGTLVTVSS
VL: DIQMTQSPSTLSASIGDRVTITCRASEGIYHWLAWYQQKPGKAPKLLIYKASSLASGAPSRFSGSGSGTDFTLTISSLQPDDFATYYCQQYSNYPLTFGGGTKLEIKR
notes: also called HN1 IgG; HN1 mAb
In assay [3], B1 yielded a dissociation constant Kd of 3 nM. Further, the “fold better affinity than the scFv molecule” value in assay [4] was over 30 fold.

B2: HN1 antibody (form not stated) (antibody, V domains shown)
VH: B1 VH
VL: DIQMTQSPSTLSASIGDRVTITCRASEGIYHWLAWYQQKPGKAPKLLIYKASSLASGAPSRFSGSGSGTDFTLTISSLQPDDFATYYCQQYSNYPLTFGGGTKLEIK
In turn, B2 gave a Kd in assay [5] of about 7.5 nM.

B3: HN2 antibody (form not stated) (antibody, V domains shown)
VH: EVQLLESGGGLVQPGGSLRPSCAASGFTFSSYAMSWVRQAPGKGLEWVSAISGSGGSTHYADSVKGRFTISRDNSKNTLYLQMNSLRAEDTAVYYCVRGGALGFDNWGRGTMVTVSS
VL: VLTQPPSVSEAPRQRVTISCSGSTSNIGSNVVNWYQQFPGKPPKVVIYYDDLVASGVSDRFSGSRSGTSASLAISGLQSEDEADYYCSAWDDSLNAWVFGGGTKVTV
Consider B3, for which the Kd in assay [6] and in assay [5] was about 1.5 nM throughout.
